What all share (assay): cell-based or functional assay
In assay [1] the target is HIV-1 Env of isolate MGRM-Chronic-B-003 (subtype B) (HIV-1).
In assay [2] the target is HIV-1 Env of isolate SF162 (subtype B) (HIV-1) (UniProt P19550).
In assay [3] the target is HIV-1 envelope glycoprotein (Env) of isolate MGRM-C-015 (HIV-1).
The target of assay [4] is HIV-1 Env of isolate MG RM-D-005 (HIV-1).
Assay [5] deals with HIV-1 Env of isolate MG RM-D-016 (HIV-1).
Assay [6] addresses HIV-1 Env of isolate 94KE105 (subtype AC) (HIV-1).
Assay [7] deals with HIV-1 Env of isolate 92TH021 (pseudovirus) (HIV-1).
Assay [8] addresses HIV-1 Env of isolate MGRM-Chronic-B-023 (subtype B) (HIV-1).
Assay [9] has as its target HIV-1 Env of isolate QH0692.42 (subtype B) (HIV-1).
The target in assay [10] is HIV-1 Env of isolate TRO.11 (subtype B) (HIV-1).
The target of assay [11] is HIV-1 envelope glycoprotein (Env) of isolate MGRM-C-009 (HIV-1).
Assay [12] has as its target HIV-1 Env of isolate MG RM-D-001 (HIV-1).
Assay [13] deals with HIV-1 envelope glycoprotein (Env) of isolate MGRM-C-022 (HIV-1).
Assay [14] concerns the target HIV-1 Env of isolate MGRM-A-012 (subtype A) (HIV-1).
Assay [15] addresses HIV-1 MGRM-C-027 Env (pseudovirus, clade C) (HIV-1).
In assay [16] the target is HIV-1 APV17 Env (pseudovirus, clade B) (HIV-1).
For assay [17], the target named is HIV-1 MGRM-AG-005 Env (pseudovirus) (HIV-1).

Sequence of 5329_C19 (PGT-136) (antibody) (VH): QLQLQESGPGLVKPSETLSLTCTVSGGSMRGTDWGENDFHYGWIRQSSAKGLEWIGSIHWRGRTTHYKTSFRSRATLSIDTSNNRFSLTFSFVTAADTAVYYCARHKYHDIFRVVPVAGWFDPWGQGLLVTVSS
Sequence of 5329_C19 (PGT-136) (antibody) (VL): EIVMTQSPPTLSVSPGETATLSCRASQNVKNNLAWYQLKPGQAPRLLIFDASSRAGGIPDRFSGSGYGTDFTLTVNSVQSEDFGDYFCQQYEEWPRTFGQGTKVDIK

As for 5114_A19 (PGT-128) (antibody), the IC50 neutralization in assay [1] is 0.007 µg/mL; in assay [2] it was 0.007 µg/mL; in assay [8] it was more than 50 µg/mL; in [9] it was 0.029 µg/mL; in assay [10] it was 0.018 µg/mL. Moreover, the IC50 (µg/mL), pseudovirus neutralization in assay [3] is 0.196 µg/mL; in [4], 0.051 µg/mL; in assay [5], more than 50 µg/mL; in [6], 0.007 µg/mL; in assay [11], more than 50 µg/mL; in assay [12], 0.138 µg/mL. Besides, the values for the IC50 (µg/mL), pseudovirus neutralization in [13] and in [14] were 0.042 µg/mL and 0.025 µg/mL, respectively. The same substance showed a Polyclonal Transfectant Neutralization Index in assay [7] of 10. In assay [7], this substance yielded a Primary Neutralization Index (B cell culture supernatant) of 6.6.
Regarding 5136_H01 (PGT-131) (antibody), the IC50 neutralization in assay [1] is more than 50 µg/mL; in assay [2], 0.025 µg/mL; in assay [8], more than 50 µg/mL; in assay [9], more than 50 µg/mL; in assay [10], 1.91 µg/mL. The IC50 (µg/mL), pseudovirus neutralization was 1.01 µg/mL in [3]; more than 50 µg/mL in assay [4]; more than 50 µg/mL in [5]; 0.013 µg/mL in [6]; more than 50 µg/mL in [11]; more than 50 µg/mL in assay [12]. The IC50 (µg/mL), pseudovirus neutralization in [13] is 0.78 µg/mL; in assay [14], more than 50 µg/mL. In assay [7], the Primary Neutralization Index (B cell culture supernatant) was 354.
Regarding 5329_C19 (PGT-136) (antibody), the IC50 neutralization is more than 50 µg/mL in assay [1]; 0.482 µg/mL in assay [2]; more than 10 µg/mL in assay [15]; more than 10 µg/mL in [16]; more than 50 µg/mL in assay [8]; more than 50 µg/mL in assay [9]. The IC50 neutralization in [10] was determined as 0.073 µg/mL. The IC50 (µg/mL), pseudovirus neutralization in assay [3] was 11.1 µg/mL; in assay [4], more than 50 µg/mL; in assay [5], more than 50 µg/mL; in [6], more than 50 µg/mL; in assay [11], more than 50 µg/mL; in assay [12], more than 50 µg/mL. For the same substance, the IC50 (µg/mL), pseudovirus neutralization in assay [13] and in assay [14] was more than 50 µg/mL throughout. The substance further came in with an IC50 (neutralizing activity, pseudovirus) in assay [17] of more than 10 µg/mL.
As to 5343_B08 (PGT-135) (antibody), the IC50 neutralization in assay [1] is more than 50 µg/mL; in assay [2], 0.023 µg/mL; in [15], more than 10 µg/mL; in assay [16], more than 10 µg/mL; in assay [8], 0.329 µg/mL; in assay [9], more than 50 µg/mL. The substance also yielded an IC50 neutralization in assay [10] of 0.03 µg/mL. Also, the IC50 (µg/mL), pseudovirus neutralization is 0.104 µg/mL in [3]; more than 50 µg/mL in [4]; more than 50 µg/mL in [5]; 0.063 µg/mL in assay [6]; more than 50 µg/mL in assay [11]; more than 50 µg/mL in [12]. The IC50 (µg/mL), pseudovirus neutralization in assay [13] and in assay [14] was more than 50 µg/mL each time. In assay [17], this substance had an IC50 (neutralizing activity, pseudovirus) of more than 10 µg/mL.

Values taken from patent US20250320281A1.
